Test results taken from patent US20250312499A1, “KISSPEPTIN RECEPTOR (KISS1R) TARGETED THERAPEUTICS AND USES THEREOF” (priority 2024, published 2025).
Numbered stars: 1 amine (or outer) side, 2 acyl side, 3 side chain; on linkers, the order of the positions; unused ones are H or OH. Square brackets hold non-standard residues; d marks the D form. Ends that are not written are not given here. * marks the point of attachment. X2 = 4‑amino‑1‑((3-fluoro-4-methylbenzyl)glycyl)piperidine‑4‑carboxylic acid, Cc1ccc(CN(CC(=O)N2CCC(N[*:1])(C(=O)[*:2])CC2)[*:3])cc1F; X7 = 4‑amino‑1‑(N-methylcarbamimidoyl)piperidine‑4‑carboxylic acid, CNC(=N)N1CCC(N[*:1])(C(=O)[*:2])CC1; Apc(4-OMe) = 4-aminopiperidine-4-carboxylic acid residue N1-acylated by a methoxy-bearing benzylglycyl; DOTA = O=C(O)CN1CCN(CC(=O)O)CCN(CC(=O)*)CCN(CC(=O)O)CC1; Api(1-amidino) = N=C(N)N1CCC(N)(C(=O)O)CC1; HO(CH2CH2O)2CH2CH2CO = O=C(CCOCCOCCO)*; Phe(3-F) = N[C@@H](Cc1cccc(F)c1)C(=O)O; Phe(4-I) = N[C@@H](Cc1ccc(I)cc1)C(=O)O; d2Nal = N[C@H](Cc1ccc2ccccc2c1)C(=O)O; 4Pal = N[C@@H](Cc1ccncc1)C(=O)O; d(β3hD) = NC(CC(=O)O)CC(=O)O; 4Amb = NCc1ccc(C(=O)O)cc1; Octanoyl = CCCCCCCC(=O)*; APM = not defined here; Ahx = NCCCCCC(=O)O; azaGly = NNC(=O)O; βAla = NCCC(=O)O; Sar = CNCC(=O)O

molecular target: human kisspeptin receptor (KISS1R) (human), Q969F8; assay: radioligand competition, hKISS1R membranes; legend: B is 10-100 nM
Sequence (Q969F8 whole entry): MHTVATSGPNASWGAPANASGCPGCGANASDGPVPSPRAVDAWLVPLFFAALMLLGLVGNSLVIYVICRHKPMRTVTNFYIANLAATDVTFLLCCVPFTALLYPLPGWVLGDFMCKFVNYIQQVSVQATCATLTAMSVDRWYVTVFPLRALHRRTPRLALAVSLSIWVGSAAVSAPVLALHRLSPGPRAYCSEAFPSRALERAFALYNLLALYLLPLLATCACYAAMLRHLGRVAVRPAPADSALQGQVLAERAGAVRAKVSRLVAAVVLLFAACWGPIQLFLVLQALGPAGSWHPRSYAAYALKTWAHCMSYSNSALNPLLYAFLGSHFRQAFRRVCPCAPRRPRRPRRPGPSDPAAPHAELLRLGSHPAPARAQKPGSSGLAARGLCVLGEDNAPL

Binder | Ki
{DOTA-Ahx}-F[azaGly]L[4‑amino‑1‑(4-(p-tolyl)butanoyl)piperidine‑4‑carboxylic acid]W-NH2 [Compound 7] | 10 to 100 nM
{DOTA-Ahx}-F[Sar]L[X2]W-NH2 (SMILES Cc1ccc(CNCC(=O)N2CCC(NC(=O)[C@H](CC(C)C)NC(=O)CN(C)C(=O)[C@H](Cc3ccccc3)NC(=O)CCCCCNC(=O)CN3CCN(CC(=O)O)CCN(CC(=O)O)CCN(CC(=O)O)CC3)(C(=O)N[C@@H](Cc3c[nH]c4ccccc34)C(N)=O)CC2)cc1F) [Compound 12] | 10 to 100 nM
{DOTA-Ahx}-[dA][dA][dA][dA][dA]F[azaGly]L[X2]W-NH2 (SMILES Cc1ccc(CNCC(=O)N2CCC(NC(=O)[C@H](CC(C)C)NC(=O)NNC(=O)[C@H](Cc3ccccc3)NC(=O)[C@@H](C)NC(=O)[C@@H](C)NC(=O)[C@@H](C)NC(=O)[C@@H](C)NC(=O)[C@@H](C)NC(=O)CCCCCNC(=O)CN3CCN(CC(=O)O)CCN(CC(=O)O)CCN(CC(=O)O)CC3)(C(=O)N[C@@H](Cc3c[nH]c4ccccc34)C(N)=O)CC2)cc1F) [Compound 13] | 10 to 100 nM
{DOTA}-[βAla][dN][dN][dN][dN][dN]F[azaGly]L[X2]W-NH2 (SMILES Cc1ccc(CNCC(=O)N2CCC(NC(=O)[C@H](CC(C)C)NC(=O)NNC(=O)[C@H](Cc3ccccc3)NC(=O)[C@@H](CC(N)=O)NC(=O)[C@@H](CC(N)=O)NC(=O)[C@@H](CC(N)=O)NC(=O)[C@@H](CC(N)=O)NC(=O)[C@@H](CC(N)=O)NC(=O)CCNC(=O)CN3CCN(CC(=O)O)CCN(CC(=O)O)CCN(CC(=O)O)CC3)(C(=O)N[C@@H](Cc3c[nH]c4ccccc34)C(N)=O)CC2)cc1F) [Compound 14] | 10 to 100 nM
{DOTA}-[dN][dN]F[azaGly]L[X2]W-NH2 (SMILES Cc1ccc(CNCC(=O)N2CCC(NC(=O)[C@H](CC(C)C)NC(=O)NNC(=O)[C@H](Cc3ccccc3)NC(=O)[C@@H](CC(N)=O)NC(=O)[C@@H](CC(N)=O)NC(=O)CN3CCN(CC(=O)O)CCN(CC(=O)O)CCN(CC(=O)O)CC3)(C(=O)N[C@@H](Cc3c[nH]c4ccccc34)C(N)=O)CC2)cc1F) [Compound 18] | 10 to 100 nM
{DOTA}-[dK][dN]F[azaGly]L[X2]W-NH2 (SMILES Cc1ccc(CNCC(=O)N2CCC(NC(=O)[C@H](CC(C)C)NC(=O)NNC(=O)[C@H](Cc3ccccc3)NC(=O)[C@@H](CC(N)=O)NC(=O)[C@@H](CCCCN)NC(=O)CN3CCN(CC(=O)O)CCN(CC(=O)O)CCN(CC(=O)O)CC3)(C(=O)N[C@@H](Cc3c[nH]c4ccccc34)C(N)=O)CC2)cc1F) [Compound 19] | 10 to 100 nM
{DOTA}-[dN]F[azaGly]L[X2]W-NH2 (SMILES Cc1ccc(CNCC(=O)N2CCC(NC(=O)[C@H](CC(C)C)NC(=O)NNC(=O)[C@H](Cc3ccccc3)NC(=O)[C@@H](CC(N)=O)NC(=O)CN3CCN(CC(=O)O)CCN(CC(=O)O)CCN(CC(=O)O)CC3)(C(=O)N[C@@H](Cc3c[nH]c4ccccc34)C(N)=O)CC2)cc1F) [Compound 21] | 10 to 100 nM
{DOTA-Ahx}-F[azaGly]L[Api(1-amidino)]W-NH2 (SMILES CC(C)C[C@H](NC(=O)NNC(=O)[C@H](Cc1ccccc1)NC(=O)CCCCCNC(=O)CN1CCN(CC(=O)O)CCN(CC(=O)O)CCN(CC(=O)O)CC1)C(=O)NC1(C(=O)N[C@@H](Cc2c[nH]c3ccccc23)C(N)=O)CCN(C(=N)N)CC1) [Compound 5] | 10 to 100 nM

Further lines, results first:

Ki | Binder
10 to 100 nM | {DOTA}-ENT[Phe(3-F)][azaGly]L[X2][4Pal]-NH2 (SMILES Cc1ccc(CNCC(=O)N2CCC(NC(=O)[C@H](CC(C)C)NC(=O)NNC(=O)[C@H](Cc3cccc(F)c3)NC(=O)[C@@H](NC(=O)[C@H](CC(N)=O)NC(=O)[C@H](CCC(=O)O)NC(=O)CN3CCN(CC(=O)O)CCN(CC(=O)O)CCN(CC(=O)O)CC3)[C@@H](C)O)(C(=O)N[C@@H](Cc3ccncc3)C(N)=O)CC2)cc1F) [Compound 171]
10 to 100 nM | Octanoyl-K(DOTA)NTF[azaGly]L[Api(1-amidino)][4Pal]-NH2 (SMILES CCCCCCCC(=O)N[C@@H](CCCCNC(=O)CN1CCN(CC(=O)O)CCN(CC(=O)O)CCN(CC(=O)O)CC1)C(=O)N[C@@H](CC(N)=O)C(=O)N[C@H](C(=O)N[C@@H](Cc1ccccc1)C(=O)NNC(=O)N[C@@H](CC(C)C)C(=O)NC1(C(=O)N[C@@H](Cc2ccncc2)C(N)=O)CCN(C(=N)N)CC1)[C@@H](C)O) [Compound 226]
10 to 100 nM | {DOTA}-[d(β3hD)]NT[Phe(3-F)][azaGly]L[X2][4Pal]-NH2 [Compound 230]
10 to 100 nM | {DOTA-trans‑4‑(aminomethyl)cyclohexane‑1‑carboxylic acid}-[D‑3‑aminopentanedioic acid]NT[Phe(3-F)][azaGly]L[X2][4Pal]-NH2 [Compound 231]
10 to 100 nM | {DOTA-4Amb}-F[azaGly][dL][X2]W-NH2 (SMILES Cc1ccc(CNCC(=O)N2CCC(NC(=O)[C@@H](CC(C)C)NC(=O)NNC(=O)[C@H](Cc3ccccc3)NC(=O)c3ccc(CNC(=O)CN4CCN(CC(=O)O)CCN(CC(=O)O)CCN(CC(=O)O)CC4)cc3)(C(=O)N[C@@H](Cc3c[nH]c4ccccc34)C(N)=O)CC2)cc1F) [Compound 260]
10 to 100 nM | {DOTA}-[dY][Phe(4-I)]NT[Phe(4-I)][azaGly]L[Api(1-amidino)][4Pal]-NH2 (SMILES CC(C)C[C@H](NC(=O)NNC(=O)[C@H](Cc1ccc(I)cc1)NC(=O)[C@@H](NC(=O)[C@H](CC(N)=O)NC(=O)[C@H](Cc1ccc(I)cc1)NC(=O)[C@@H](Cc1ccc(O)cc1)NC(=O)CN1CCN(CC(=O)O)CCN(CC(=O)O)CCN(CC(=O)O)CC1)[C@@H](C)O)C(=O)NC1(C(=O)N[C@@H](Cc2ccncc2)C(N)=O)CCN(C(=N)N)CC1) [Compound 121]

molecular target: human kisspeptin receptor (KISS1R) (human), Q969F8; assay: radioligand competition, hKISS1R membranes; legend: C is >100 nM

Binder | Ki
{DOTA-Ahx}-F[azaGly]L[X7]W-NH2 (SMILES CNC(=N)N1CCC(NC(=O)[C@H](CC(C)C)NC(=O)NNC(=O)[C@H](Cc2ccccc2)NC(=O)CCCCCNC(=O)CN2CCN(CC(=O)O)CCN(CC(=O)O)CCN(CC(=O)O)CC2)(C(=O)N[C@@H](Cc2c[nH]c3ccccc23)C(N)=O)CC1) [Compound 189] | > 100 nM
{DOTA-Ahx}-TNRNFL[Api(1-amidino)]F-NH2 (SMILES CC(C)C[C@H](NC(=O)[C@H](Cc1ccccc1)NC(=O)[C@H](CC(N)=O)NC(=O)[C@H](CCCNC(=N)N)NC(=O)[C@H](CC(N)=O)NC(=O)[C@@H](NC(=O)CCCCCNC(=O)CN1CCN(CC(=O)O)CCN(CC(=O)O)CCN(CC(=O)O)CC1)[C@@H](C)O)C(=O)NC1(C(=O)N[C@@H](Cc2ccccc2)C(N)=O)CCN(C(=N)N)CC1) [Compound 199] | > 100 nM
ENTF[azaGly][dL][Apc(4-OMe)]F [Compound 239] | > 100 nM
{DOTA-APM}-F[azaGly]L[X2]H-NH2 (reading uncertain) [Compound 248] | > 100 nM
{HO(CH2CH2O)2CH2CH2CO}-K(DOTA)TF[azaGly]L[X2][4Pal]-NH2 (SMILES Cc1ccc(CNCC(=O)N2CCC(NC(=O)[C@H](CC(C)C)NC(=O)NNC(=O)[C@H](Cc3ccccc3)NC(=O)[C@@H](NC(=O)[C@H](CCCCNC(=O)CN3CCN(CC(=O)O)CCN(CC(=O)O)CCN(CC(=O)O)CC3)NC(=O)CCOCCOCCO)[C@@H](C)O)(C(=O)N[C@@H](Cc3ccncc3)C(N)=O)CC2)cc1F) [Compound 251] | > 100 nM
{HO(CH2CH2O)2CH2CH2CO}-K(DOTA)ETF[azaGly]L[X2][4Pal]-NH2 (SMILES Cc1ccc(CNCC(=O)N2CCC(NC(=O)[C@H](CC(C)C)NC(=O)NNC(=O)[C@H](Cc3ccccc3)NC(=O)[C@@H](NC(=O)[C@H](CCC(=O)O)NC(=O)[C@H](CCCCNC(=O)CN3CCN(CC(=O)O)CCN(CC(=O)O)CCN(CC(=O)O)CC3)NC(=O)CCOCCOCCO)[C@@H](C)O)(C(=O)N[C@@H](Cc3ccncc3)C(N)=O)CC2)cc1F) [Compound 252] | > 100 nM
{DOTA}-[βAla][dN][dN][dE][dE][dN]F[azaGly]L[X2]W-NH2 (SMILES Cc1ccc(CNCC(=O)N2CCC(NC(=O)[C@H](CC(C)C)NC(=O)NNC(=O)[C@H](Cc3ccccc3)NC(=O)[C@@H](CC(N)=O)NC(=O)[C@@H](CCC(=O)O)NC(=O)[C@@H](CCC(=O)O)NC(=O)[C@@H](CC(N)=O)NC(=O)[C@@H](CC(N)=O)NC(=O)CCNC(=O)CN3CCN(CC(=O)O)CCN(CC(=O)O)CCN(CC(=O)O)CC3)(C(=O)N[C@@H](Cc3c[nH]c4ccccc34)C(N)=O)CC2)cc1F) [Compound 15] | > 100 nM

molecular target: human kisspeptin receptor (KISS1R) (human) (UniProt Q969F8); assay: radioligand competition, hKISS1R membranes; legend: A is <10 nM
Sequence (Q969F8 whole entry): as above

Binder | Ki
{DOTA-Ahx}-[dY][d2Nal]NTF[azaGly]L[4‑amino‑1‑(octylglycyl)piperidine‑4‑carboxylic acid][dW]-NH2 [Compound 374] | < 10 nM
